In PMC5687603:

B1: short-form Klotho (Skl): Skl3N (protein)
parent chain: MLARAPPRRPPRLVLLRLLLLHLLLLALRARCLSAEPGQGAQTWARFARAPAPEAAGLLHDTFPDGFLWAVGSAAYQTEGGWRQHGKGASIWDTFTHHSGAAPSDSPIVVAPSGAPSPPLSSTGDVASDSYNNVYRDTEGLRELGVTHYRFSISWARVLPNGTAGTPNREGLRYYRRLLERLRELGVQPVVTLYHWDLPQRLQDTYGGWANRALADHFRDYAELCFRHFGGQVKYWITIDNPYVVAWHGYATGRLAPGVRGSSRLGYLVAHNLLLAHAKVWHLYNTSFRPTQGGRVSIALSSHWINPRRMTDYNIRECQKSLDFVLGWFAKPIFIDGDYPESMKNNLSSLLPDFTESEKRLIRGTADFFALSFGPTLSFQLLDPNMKFRQLESPNLRQLLSWIDLEYNHPPIFIVENGWFVSGTTKRDDAKYMYYLKKFIMETLKAIRLDGVDVIGYTAWSLMDGFEWHRGYSIRRGLFYVDFLSQDKELLPKSSALFYQKLIEDNGFPPLPENQPLEGTFPCDFAWGVVDNYVQVSPLTKPSVGLLLPH
B2: short-form Klotho (Skl): SklN285A (protein)
parent chain: B1 parent chain

Experiments:
[1] = GSH/GSSG-Glo luminescence assay; settings: glycan lost; control: Skl (wild type)
[2] = DHE staining, flow cytometry, HEK293; settings: glycan lost; control: Skl (wild type)

Protein	other: antioxidant activity (raising of GSH/GSSG ratio) [1]	other: antioxidant activity (lowering of intracellular O2-) [2]
B1	abolishes	decreases
B2	abolishes	
